From CN116333117A (LAITEKANG SUZHOU BIOPHARMACEUTICAL CO LTD, dated 2023)

Key:
HER3 = target: T1, HER3 (human, UniProt P21860 20-643, limits assumed); assay: ELISA, coated HER3, antibody in 3-fold dilutions
T1 construct: also called ErbB3

HER2 = target: T2, HER2 (human, UniProt P04626 23-652, limits assumed); assay: ELISA, coated HER2, antibody in 3-fold dilutions
T2 construct: also called ErbB2

[1] = target: T3, hEGFR/ECD-his (自制的C-末端具有his标签的人EGFR胞外域蛋白全长) (human, UniProt P00533 25-645); assay: ELISA, coated hEGFR/ECD-his 1 ug/mL, anti-hIgG Fc-HRP
T3 construct: extracellular domain; Home-made antigen; also called hEGFR/EDC-his; hEGFR/EGFR-his; not shown: C-terminal his tag

HER4 = target: T4, HER4 (human, UniProt Q15303 26-649, limits assumed); assay: ELISA, coated HER4, antibody in 3-fold dilutions
T4 construct: also called ErbB4
T4 sequence (looked up): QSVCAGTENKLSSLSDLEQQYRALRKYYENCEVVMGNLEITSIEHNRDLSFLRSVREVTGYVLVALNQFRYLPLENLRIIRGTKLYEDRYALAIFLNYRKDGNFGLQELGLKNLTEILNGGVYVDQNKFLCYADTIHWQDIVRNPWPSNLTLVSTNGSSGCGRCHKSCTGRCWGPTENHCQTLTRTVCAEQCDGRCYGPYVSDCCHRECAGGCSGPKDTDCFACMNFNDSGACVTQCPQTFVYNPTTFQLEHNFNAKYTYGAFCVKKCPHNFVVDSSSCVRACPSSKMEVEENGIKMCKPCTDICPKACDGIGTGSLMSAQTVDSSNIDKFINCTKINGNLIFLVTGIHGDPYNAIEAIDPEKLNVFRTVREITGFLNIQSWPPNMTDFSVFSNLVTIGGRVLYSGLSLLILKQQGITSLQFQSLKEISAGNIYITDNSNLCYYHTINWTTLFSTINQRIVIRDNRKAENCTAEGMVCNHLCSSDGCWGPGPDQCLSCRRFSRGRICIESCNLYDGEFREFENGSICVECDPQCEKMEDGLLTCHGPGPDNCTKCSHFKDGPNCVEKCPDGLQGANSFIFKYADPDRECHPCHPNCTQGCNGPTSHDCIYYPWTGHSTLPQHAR

[2] = target: T3, hEGFR/ECD-his …; assay: BLI (ForteBio Qke), antibody on Protein A probes, hEGFR in solution from 20 ug/mL in 1:2 dilutions

T1 sequence (P21860 20-643 limits assumed): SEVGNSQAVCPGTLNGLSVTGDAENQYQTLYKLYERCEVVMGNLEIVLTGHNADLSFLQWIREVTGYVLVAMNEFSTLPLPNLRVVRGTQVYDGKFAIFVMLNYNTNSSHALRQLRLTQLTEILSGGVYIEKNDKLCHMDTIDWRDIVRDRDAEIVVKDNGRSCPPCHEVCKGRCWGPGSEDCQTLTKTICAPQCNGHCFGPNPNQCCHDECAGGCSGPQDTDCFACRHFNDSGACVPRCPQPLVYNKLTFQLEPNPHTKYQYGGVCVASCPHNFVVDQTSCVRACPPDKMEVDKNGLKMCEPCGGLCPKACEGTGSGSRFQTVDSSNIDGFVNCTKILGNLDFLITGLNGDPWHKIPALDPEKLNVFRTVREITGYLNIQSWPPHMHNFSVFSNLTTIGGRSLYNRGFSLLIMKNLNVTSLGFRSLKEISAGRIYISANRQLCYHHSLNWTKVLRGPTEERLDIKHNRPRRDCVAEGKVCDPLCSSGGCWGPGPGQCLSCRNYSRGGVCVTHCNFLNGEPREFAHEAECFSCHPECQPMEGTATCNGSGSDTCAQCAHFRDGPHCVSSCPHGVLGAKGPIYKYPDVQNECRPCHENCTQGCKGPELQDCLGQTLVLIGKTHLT

binding result (HER3): no binding (tested: 起始浓度为2μg/mL)
binding result (HER2): no binding (tested: 起始浓度为2μg/mL)
EC50 [1]: ~0.0199 µg/mL
binding result (HER4): no binding (tested: 起始浓度为2μg/mL)
Kd [2]: ~2.03 nM
B1: mouse anibody1129 (mAb1129) (antibody, V domains shown)
VH: DVMLVESGGGLVKPGGSLKLSCAASGFAFSNYDMSWVRQTPEKRLEWVAYISSGGDITYYLDTVKGRFTISRDNAKNTLYLQMSSLKSEDTAMYYCARSHYGYYGDTMDYWGQGTSVTVSS
VL: DVVMTQTPLSLPVSLGDQASISCRSSQSLVHSNGNTYLHWYLQKPGQSPKLLIYKVSNRFSGVPDRFSGSGSGTDFTLKISRVEAEDLGVYFCSQSTHVPPTFGGGTKLEIK
notes: also called 抗EGFR抗体mAb1129; 小鼠抗EGFR抗体; not shown: human kappa light chain constant region
